Patent US20210238283A1 (Y BIOLOGICS, published 2021)

T1: mouse LAG-3 overexpressed on HEK293E cells (mouse, UniProt Q61790 24-521)
T1 construct: whole, on cells; also called HEK293E-mLAG3; mLAG3 (Mouse)
T1 sequence (looked up): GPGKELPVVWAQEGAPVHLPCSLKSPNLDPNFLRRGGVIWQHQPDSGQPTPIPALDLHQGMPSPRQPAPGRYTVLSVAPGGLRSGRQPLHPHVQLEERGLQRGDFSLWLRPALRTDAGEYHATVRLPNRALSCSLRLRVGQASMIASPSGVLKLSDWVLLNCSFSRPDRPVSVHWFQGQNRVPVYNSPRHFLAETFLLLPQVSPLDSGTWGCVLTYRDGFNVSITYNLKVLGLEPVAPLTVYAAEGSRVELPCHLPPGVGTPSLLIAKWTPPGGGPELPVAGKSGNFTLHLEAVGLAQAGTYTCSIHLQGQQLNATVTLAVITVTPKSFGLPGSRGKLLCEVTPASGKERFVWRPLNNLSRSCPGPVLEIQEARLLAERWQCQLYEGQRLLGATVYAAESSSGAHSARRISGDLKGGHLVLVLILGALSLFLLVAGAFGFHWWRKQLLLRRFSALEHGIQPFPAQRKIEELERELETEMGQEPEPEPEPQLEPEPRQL

T2: monkey (Rhesus monkey) LAG-3 overexpressed on HEK293E cells (Rhesus monkey, UniProt A0A5F8A874 23-533)
T2 construct: whole, on cells; also called HEK293E-MrhLAG3; MrhLAG3 (Rhesus Monkey)
T2 sequence: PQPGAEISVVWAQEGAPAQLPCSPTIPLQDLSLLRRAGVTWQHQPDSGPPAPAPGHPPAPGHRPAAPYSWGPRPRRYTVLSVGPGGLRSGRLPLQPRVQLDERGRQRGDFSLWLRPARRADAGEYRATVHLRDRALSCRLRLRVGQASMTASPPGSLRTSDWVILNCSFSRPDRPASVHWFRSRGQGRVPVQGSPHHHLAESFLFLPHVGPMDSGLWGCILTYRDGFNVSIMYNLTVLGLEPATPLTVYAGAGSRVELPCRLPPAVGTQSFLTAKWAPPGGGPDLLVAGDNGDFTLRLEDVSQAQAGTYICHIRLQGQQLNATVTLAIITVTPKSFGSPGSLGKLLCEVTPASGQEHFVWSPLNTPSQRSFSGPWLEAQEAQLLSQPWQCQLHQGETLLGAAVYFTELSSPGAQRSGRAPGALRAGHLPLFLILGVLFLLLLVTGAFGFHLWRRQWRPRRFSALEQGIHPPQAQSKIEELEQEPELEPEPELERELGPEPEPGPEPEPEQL

T3: recombinant human LAG-3 extracellular domain fused with mouse Fc (hLAG-3-mFc) (human, UniProt P18627 29-450)
T3 construct: range 29-450; Made in HEK293F cells; also called human LAG-3 antigen; wild-type (WT) LAG-3; not shown: mouse Fc (mFc) at the carboxy terminal
T3 sequence (looked up): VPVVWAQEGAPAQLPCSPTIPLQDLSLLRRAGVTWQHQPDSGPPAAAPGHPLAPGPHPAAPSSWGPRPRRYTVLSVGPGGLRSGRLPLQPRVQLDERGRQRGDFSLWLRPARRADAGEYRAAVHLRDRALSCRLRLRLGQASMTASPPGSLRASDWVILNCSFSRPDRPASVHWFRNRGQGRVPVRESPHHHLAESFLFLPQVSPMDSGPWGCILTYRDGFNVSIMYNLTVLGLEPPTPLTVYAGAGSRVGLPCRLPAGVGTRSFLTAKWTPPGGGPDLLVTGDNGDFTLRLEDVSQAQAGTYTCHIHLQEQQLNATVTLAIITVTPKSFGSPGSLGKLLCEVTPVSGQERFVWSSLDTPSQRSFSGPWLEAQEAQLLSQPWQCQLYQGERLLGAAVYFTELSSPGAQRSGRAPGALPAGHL

T4: human LAG-3 overexpressed on cells (human, UniProt P18627 23-525)
T4 construct: whole, on cells; also called HEK293E-hLAG3; hLAG3 (Human)
T4 sequence (looked up): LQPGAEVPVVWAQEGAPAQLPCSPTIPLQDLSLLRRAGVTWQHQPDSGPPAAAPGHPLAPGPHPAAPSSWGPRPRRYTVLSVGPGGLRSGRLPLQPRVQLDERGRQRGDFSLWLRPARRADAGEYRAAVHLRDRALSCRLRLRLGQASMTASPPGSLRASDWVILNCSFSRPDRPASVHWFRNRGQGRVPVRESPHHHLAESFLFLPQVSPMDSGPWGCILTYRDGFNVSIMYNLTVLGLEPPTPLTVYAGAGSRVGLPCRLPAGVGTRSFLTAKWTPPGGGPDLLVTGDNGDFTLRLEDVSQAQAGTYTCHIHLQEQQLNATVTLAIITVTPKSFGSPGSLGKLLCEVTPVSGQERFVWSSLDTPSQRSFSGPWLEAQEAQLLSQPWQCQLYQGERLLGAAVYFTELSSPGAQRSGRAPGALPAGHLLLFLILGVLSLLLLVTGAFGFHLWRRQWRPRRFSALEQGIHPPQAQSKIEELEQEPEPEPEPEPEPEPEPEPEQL

T5: recombinant mouse LAG-3 fused with mouse Fc (mLAG-Fc) (mouse, UniProt Q61790 24-442, limits assumed)
T5 construct: also called mouse LAG-3 antigen; not shown: mouse Fc (mFc) at the carboxy terminal
T5 sequence (looked up): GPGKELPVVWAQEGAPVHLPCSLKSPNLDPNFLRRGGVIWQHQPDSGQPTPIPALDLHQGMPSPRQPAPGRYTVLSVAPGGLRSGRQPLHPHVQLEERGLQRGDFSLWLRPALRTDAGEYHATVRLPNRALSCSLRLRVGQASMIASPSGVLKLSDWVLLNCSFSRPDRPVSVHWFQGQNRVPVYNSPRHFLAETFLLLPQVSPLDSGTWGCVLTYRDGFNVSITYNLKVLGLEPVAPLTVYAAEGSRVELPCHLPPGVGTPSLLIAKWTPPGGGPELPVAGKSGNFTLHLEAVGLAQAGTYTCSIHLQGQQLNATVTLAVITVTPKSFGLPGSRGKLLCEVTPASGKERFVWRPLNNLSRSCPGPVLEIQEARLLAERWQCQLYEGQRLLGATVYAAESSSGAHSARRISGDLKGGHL


Assays:
[1] = target: T1, mouse LAG-3 overexpressed on HEK293E …; test: flow cytometry on HEK293E-mLAG3 cells, MFI, fitted curve
Description: (§1) After that, the cells were washed three times with PBS containing 2% FBS and then subjected to the reaction for 30 minutes at 4° C. with anti-human IgG antibody (#FI-3000, Vectorlabs) linked with FITC fluorescent. The cells were washed by the same washing process as above followed by suspension in 0.2 ml PBS containing 2% FBS. The cells were then analyzed by FACSCanto II flow cytometer.

[2] = target: T2, monkey (Rhesus monkey) LAG-3 …; test: flow cytometry on HEK293E-MrhLAG3 cells, MFI, fitted curve
Description: as §1

[3] = target: T6, recombinant monkey LAG-3 fused with mouse Fc (MrhLAG-3-mFc) (monkey); test: Octet biolayer interferometry, 1:1 global fit
T6 construct: also called monkey LAG-3 antigen
Description: (§2) After stabilization for 10 minutes in a buffer (#18-1042, Fortebio Inc.), immobilized antigen or antibody was washed out for 5 minutes with the buffer. The antibody or antigen desired for binding was prepared at different concentrations (0.94-60 nM) in a 96-well plate (#655209, Greiner Bio-One, USA) and subjected to the association reaction for 10 minutes followed by dissociation reaction for 10 minutes or 30 minutes.

[4] = target: T3, recombinant human LAG-3 extracellular …; test: Octet biolayer interferometry, 1:1 global fit
Description: as §2

[5] = target: T4, human LAG-3 overexpressed on cells; test: flow cytometry on HEK293E-hLAG3 cells, MFI, fitted curve
Description: as §1

[6] = target: T5, recombinant mouse LAG-3 fused with …; test: BLI (Octet QKe), 1:1 global fit
Description: as §2

[7] = target: T6, recombinant monkey LAG-3 fused with …; test: BLI (Octet QKe), 1:1 global fit
Description: as §2

[8] = target: T3, recombinant human LAG-3 extracellular …; test: BLI (Octet QKe), 1:1 global fit
Description: as §2

[9] = target: T4, human LAG-3 overexpressed on cells; test: cell-based or functional assay
[10] = target: T5, recombinant mouse LAG-3 fused with …; test: BLI (Octet QKe)
[11] = target: T1, mouse LAG-3 overexpressed on HEK293E …; test: flow cytometry on HEK293E-mLAG3 cells, MFI
Description: as §1

Binder | EC50 [1] | EC50 [2] | koff [3] | kon [3] | koff [4] | kon [4] | EC50 [5] | Kd [6] | Kd [7] | Kd [8] | EC50 (µg/ml), LAG3/MHC class II Blockade bioassay [9] | binding result [10] | binding result [11]
LAG3-1E09_AM_2H01 (antibody, V domains shown, Tested as full IgG) VH: EVQLVESGGDLVQPGGSLRLSCAASGFTFSDHYMNWVRQAPGKGLEWVAYIDTSATYIYYADSVKGRFTISRDNAKNSLYLQMNSLRAEDTAVYYCARDNWGSLDYWGQGTLVTVSS VL: DIQMTQSPSSLSASVGDRVTITCQASQDISNYLNWYQQKPGKAPNLLIYDASTLETGVPSRFSGSGYGTDFTLTISGLQPDDFALYYCQQSYSTPYSFGPGTKVEIK | 1.74 µg/mL | 0.156 µg/mL | 3.23e-05 s⁻¹ | 51400 M⁻¹ s⁻¹ | 1.61e-05 s⁻¹ | 119000 M⁻¹ s⁻¹ | 0.0297 µg/mL | 2.62 nM | 0.629 nM | 0.136 nM | 0.0822 µg/mL |  | 
LAG3-1E09_FR_1E05 (antibody, V domains shown, Tested as full IgG) VH: EVQLVESGGGLVQPGGSLRLSCAASGFSFSDHYMNWVRQAPGKGLEWVAYIDTSATYIYYADSVKGRFTISRDNAKNSLYLQMNSLRAEDTAVYYCARDNWGSLDYWGQGTLVTVSS VL: DIQMTQSPSSLSASVGDRVTITCRASQSISSWLAWYQHKPGKAPKLLIYDASNLETGAPSRFSGSGSGTDFTFTIYSLQPEDVATYYCQQYDTVPPTFGPGTKVDIK |  | 0.301 µg/mL | 3.7e-05 s⁻¹ | 81100 M⁻¹ s⁻¹ | 1.03e-05 s⁻¹ | 114000 M⁻¹ s⁻¹ | 0.0926 µg/mL |  | 0.456 nM | 0.0906 nM | 0.0938 µg/mL | no binding | no binding (tested: Log10[Ab] about 0.8, µg/ml)
